Source: paper PMC3210390

Key:
Tfam HMG-box B = target: T1, Tfam HMG-box B (Homo sapiens, UniProt Q00059 153-222); test: intrinsic Trp fluorescence quenching
T1 sequence: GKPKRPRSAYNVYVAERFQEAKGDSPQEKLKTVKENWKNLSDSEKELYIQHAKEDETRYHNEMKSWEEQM

Tfam Y162A [1] = target: T2, Tfam Y162A (Homo sapiens, UniProt Q00059 43-246, Y162A); test: intrinsic Trp fluorescence quenching
T2 sequence: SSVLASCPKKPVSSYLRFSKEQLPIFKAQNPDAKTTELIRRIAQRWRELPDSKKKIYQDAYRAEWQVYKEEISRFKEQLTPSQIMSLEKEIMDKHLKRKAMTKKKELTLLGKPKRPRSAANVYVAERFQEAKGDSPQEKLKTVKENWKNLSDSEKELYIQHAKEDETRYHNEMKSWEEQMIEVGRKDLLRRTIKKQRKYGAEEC

Tfam WT (mature) [2] = target: T3, Tfam WT (mature) (Homo sapiens, UniProt Q00059 43-246); test: intrinsic Trp fluorescence quenching
T3 sequence: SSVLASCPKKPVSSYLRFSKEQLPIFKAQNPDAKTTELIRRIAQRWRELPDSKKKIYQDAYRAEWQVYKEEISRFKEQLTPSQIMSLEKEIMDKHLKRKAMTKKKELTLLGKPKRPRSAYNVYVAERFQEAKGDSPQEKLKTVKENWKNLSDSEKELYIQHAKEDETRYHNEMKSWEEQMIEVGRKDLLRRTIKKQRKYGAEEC

Tfam L6 [3] = target: T4, Tfam L6 (Homo sapiens, UniProt Q00059 43-246, K136A;H137A;K139A;R140A;K146A;K147A); test: intrinsic Trp fluorescence quenching
T4 sequence: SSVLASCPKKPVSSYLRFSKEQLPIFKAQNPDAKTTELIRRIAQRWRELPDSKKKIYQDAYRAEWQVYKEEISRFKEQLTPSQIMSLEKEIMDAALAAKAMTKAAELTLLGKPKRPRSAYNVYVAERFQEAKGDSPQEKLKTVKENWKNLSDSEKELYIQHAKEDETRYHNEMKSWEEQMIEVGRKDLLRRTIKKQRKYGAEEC

Tfam T77A [4] = target: T5, Tfam T77A (Homo sapiens, UniProt Q00059 43-246, T77A); test: intrinsic Trp fluorescence quenching
T5 sequence: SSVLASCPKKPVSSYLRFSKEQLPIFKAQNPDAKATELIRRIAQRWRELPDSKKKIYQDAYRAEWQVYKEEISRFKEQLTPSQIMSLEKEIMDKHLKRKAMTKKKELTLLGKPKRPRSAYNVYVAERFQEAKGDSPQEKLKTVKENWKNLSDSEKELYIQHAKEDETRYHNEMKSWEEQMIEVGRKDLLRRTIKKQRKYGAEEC

Tfam HMG-box A = target: T6, Tfam HMG-box A (Homo sapiens, UniProt Q00059 43-122); test: intrinsic Trp fluorescence quenching
T6 sequence: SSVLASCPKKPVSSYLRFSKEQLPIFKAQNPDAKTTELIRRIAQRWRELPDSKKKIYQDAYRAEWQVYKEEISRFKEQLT

Tfam Y162A [5] = target: T2, Tfam Y162A; test: FRET bending
Tfam WT (mature) [6] = target: T3, Tfam WT (mature); test: FRET bending
Tfam L6 [7] = target: T4, Tfam L6; test: FRET bending
Tfam T77A [8] = target: T5, Tfam T77A; test: FRET bending

Binder	Kd (Tfam HMG-box B) [nM]	Kd (Tfam Y162A [1]) [nM]	Kd (Tfam WT (mature) [2]) [nM]	Kd (Tfam L6 [3]) [nM]	Kd (Tfam T77A [4]) [nM]	Kd (Tfam HMG-box A) [nM]	binding signal (Tfam Y162A [5]) [% FRET efficiency]	binding signal (Tfam WT (mature) [6]) [% FRET efficiency]	binding signal (Tfam L6 [7]) [% FRET efficiency]	binding signal (Tfam T77A [8]) [% FRET efficiency]
LSP 28 bp (dsDNA) DNA 1: TGTTAGTTGGGGGGTGACTGTTAAAAGT DNA 2: ACTTTTAACAGTCACCCCCCAACTAACA	411 ± 46	12.3 ± 1.8	6 ± 0.9	10.1 ± 1.2	7.6 ± 1.1	6.5 ± 1.2	–	–	–	–
LSP 28 bp Cy3/Cy5 (dsDNA) DNA 1: TGTTAGTTGGGGGGTGACTGTTAAAAGT DNA 2: ACTTTTAACAGTCACCCCCCAACTAACA	–	–	–	–	–	–	29.4 ± 0.6	36.5 ± 0.8	26.1 ± 0.6	31.4 ± 0.2
